Data set [1] in a line: in vivo. The conditions noted are these: for tolerability of the dosage level: tolerated if treatment-related weight loss <20%; for Days of Deaths (s = surviving at study end): five mice listed singly; for common clinical signs / necropsy findings: dosage levels found tolerated; for Max. Mean Body Weight change during Rx (%) / MTD (maximum tolerated dose): intravenously once each day for ten days; for % Rx Related Deaths / Day of Max. Mean Body Weight Loss (body weight nadir): once each day for ten days; for MTD (maximum tolerated dose): mice fed a folate deficient diet, dose equivalents. The procedure: The purpose of this study was to determine the maximum tolerated dose for pemetrexed (PMX), Compound 20a (from Example 1), Compound 20b (from Example 1), Compound 20c (from Example 1), and Compound 20d (from Example 1) in female SCID mice fed a low folate diet. All compounds were administered intravenously, once each day, for ten consecutive days.
Calculations were made to provide “dose equivalents” between PMX, Compound 20a, Compound 20b, Compound 20c and Compound 20d, which “dose equivalents” along with the “actual dose” administered are provided in Table 2. All dosagese in this example are expressed in terms of “dose equivalents” and adjustments were made for excipients, salts and hydration state.
Female SCID mice (HsdIcr:Ha (ICR)-Prkdc-scid) were obtained from Harlan. They were seven weeks old on Day 1 of the experiment. The mice in Groups 1 and 2 were fed irradiated Rodent Diet 5053 (LabDiet™). The mice in Groups 3 through 19 were fed irradiated Folic Acid Deficient Purina TestDiet supplemented with 1% succinylsufathiazol from 14 days prior to dosing until 14 days after dosing was completed, at which time the study was terminated and the mice were then euthanized. All groups received drinking water ad libitum. Mice were housed in static cages in clean rooms that provide H.E.P.A filtered air into the environment at 100 complete air changes per hour. All treatments, body weight determinations, and tumor measurements were carried out in the environment. The environment was controlled to a temperature range of 70°±2° F. and a humidity range of 30-70%. […] Mice found in obvious distress or in a moribund condition were euthanized. The study was carried out in an AAALAC accredited facility.
Treatments began on Day 1. […] Mice in Groups 3 through 19 were fed irradiated Folic Acid Deficient Purina TestDiet with 1% Succinylsufathiazol for 14 days prior to dosing as well as throughout the entire experiment. All mice were dosed according to individual body weight on the day of treatment (0.2 ml/20 g).
Mice were weighed on each day of treatment and at least three times weekly thereafter. Individual body weights were recorded three times weekly. […] In this report, a dosage level is described as tolerated if treatment-related weight loss (during and two weeks after treatment) is <20%. Upon death or euthanasia, all mice were necropsied to provide a general assessment of potential cause of death and perhaps target organs for toxicity.

A short description of data set [2]: Single dose maximum tolerated dose study. Format: in vivo, mice. The conditions noted are these: single intravenous dose; for Single dose MTD: dose equivalents, in mg/kg. On the procedure:
Because of too much efficacy of daily dosing for ten days in a pilot xenograft study (likely due to the effects of repeated dosing), a single dose maximum tolerated dose study was conducted using a method similar to that provided in Example 3 in order to have a better dosing schedule for a comparative xenograft study.

Data set [3] deals with xenograft. The data set can be described thus: In vivo xenograft study. On the set-up: species or system female athymic nu/nu mice. The note with it: as of day 26; intravenously, at 80% and at 50% of the single dose maximum tolerated dose. The procedure:
Briefly, for run of the experiment, a previously untreated group of 8-12 week old mice was intravenously administered a test article prepared in saline and diluted to appropriate concentrations to allow administration volumes of a maximum of 20 mL/kg. Each compound of interest was tested twice: once at 80% of the maximum tolerated dose and once at 50% of the maximum tolerated (maximum tolerated doses calculated on the single dose maximum tolerated dose study).
Mice were observed daily for clinical signs and body weights were recorded daily (except on weekend days) then biweekly until the end of study. Dosing was terminated for any group in which mean weight loss exceeded 20% or >10% of animals died. Moribund animals were euthanized.

[4] abbreviates: low folate diet, 3.75 mg/kg/inj dose equivalents.
[5] abbreviates: low folate diet, 1 mg/kg/inj dose equivalents.
The mark [6] stands for this setting: low folate diet, 15 mg/kg/inj dose equivalents.

In the case of “4-arm-PEG10k-γ-amide-Pemetrexed Conjugate [Compound 20a]”, in data set [1] (low folate diet, 1 mg/kg), the “maximum treatment-related body weight loss” value is “approximately 3.0%” and the “tolerability of the dosage level” value is listed as “tolerated”. Also, in data set [1] (low folate diet, 3.75 mg/kg), the “maximum treatment-related body weight loss” value was “approximately 3.0%” and the “tolerability of the dosage level” value is recorded as “tolerated”. Also, in data set [1] (setting [4]), the “Days of Deaths (s = surviving at study end)” value (“Days of Deaths” for short) is listed as “s, s, s, s, s”; the “Max. Mean Body Weight change during Rx (%)” value is reported as −3.0%; the “% Rx Related Deaths” value is listed as 0%; the “Day of Max. Mean Body Weight Loss (body weight nadir)” value (shortened to “Day of Max. Mean Body Weight Loss”) amounted to 8. Besides, in data set [1] (low folate diet, 15 mg/kg), the “maximum treatment-related body weight loss” value worked out at 14.9%, the “time to recover lost body weight” value is listed as “approximately 10 days” and the “tolerability of the dosage level” value is listed as “toxic”. Also, in data set [1] (low folate diet), the common clinical signs result is recorded as “Rough pelage”; the necropsy findings result was “bloated intestines and air filled stomachs”. Moreover, in data set [1] (setting [5]), the “Max. Mean Body Weight change during Rx (%)” value is given as −3.4%, the “% Rx Related Deaths” value is 20% and the “Day of Max. Mean Body Weight Loss” value was determined as 5. Besides, in data set [1] (setting [6]), the “Max. Mean Body Weight change during Rx (%)” value is given as −14.9%, the “% Rx Related Deaths” value is 40% and the “Day of Max. Mean Body Weight Loss” value is recorded as 8. Further, in data set [1], the “MTD (maximum tolerated dose)” value fell in the range of 3.75 to 15 mg/kg.

“4-arm-PEG20k-γ-amide-Pemetrexed Conjugate [Compound 20b]”: the “Single dose MTD” value in data set [2] was 70. In addition, in data set [2] (tested dose (equiv) 70), the “BWL (body weight loss)” value is −8.7%, the “day (of body weight loss)” value is on record as 7 and the treatment-related deaths turned out to be 0. Further, in data set [2] (tested dose (equiv) 95), the “BWL (body weight loss)” value was −16.4%, the “day (of body weight loss)” value was determined as 7 and the treatment-related deaths is reported as 0. Also, in data set [2] (tested dose (equiv) 125), the “BWL (body weight loss)” value was −24.4%, the “day (of body weight loss)” value was determined as 7, the “mean day of death” value is listed as 9 and the treatment-related deaths is given as 1. Moreover, in data set [3], the “tumor volume compared with saline control” value is listed as “significantly less tumor volume than saline control” and the “tumor volume compared with the other articles tested” value is “lowest tumor volumes of all articles tested”. Further, in data set [1] (setting [5]), the “Days of Deaths” value is listed as “s, s, s, s, s”; the “Max. Mean Body Weight change during Rx (%)” value is reported as −1.8%; the “Day of Max. Mean Body Weight Loss” value is recorded as 5. Besides, in data set [1] (low folate diet, 1 mg/kg), the “tolerability of the dosage level” value is “well tolerated”. Moreover, in data set [1] (setting [4]), the “Days of Deaths” value is on record as “s, s, s, s, s”; the “Max. Mean Body Weight change during Rx (%)” value was −6.5%; the “Day of Max. Mean Body Weight Loss” value is 5. Moreover, in data set [1] (low folate diet, 3.75 mg/kg), the “tolerability of the dosage level” value is on record as “well tolerated”. In data set [1] (setting [6]), the “Days of Deaths” value is “s, s, s, s, s”; the “Max. Mean Body Weight change during Rx (%)” value is on record as −16.9%; the “Day of Max. Mean Body Weight Loss” value stood at 12. For the same substance, the “tolerability of the dosage level” value in data set [1] (low folate diet, 15 mg/kg) was “well tolerated”. In data set [1] (low folate diet), the common clinical signs entry is reported as “Rough pelage” and the necropsy findings entry is given as “Nothing significant”. In data set [1], the “MTD (maximum tolerated dose)” value is approximately 15 mg/kg.

Turning to “4-arm-PEG-20k-γ-Ethyl-Ester-pemetrexed [Compound 24b]”, the “Single dose MTD” value in data set [2] is recorded as 12. In addition, the treatment-related deaths in data set [2] (tested dose (equiv) 8) was found to be 0. Further, in data set [2] (tested dose (equiv) 12), the “BWL (body weight loss)” value is given as −8.9%, the “day (of body weight loss)” value was determined as 5 and the treatment-related deaths is 0. In addition, in data set [2] (tested dose (equiv) 20), the “BWL (body weight loss)” value was −10.4%, the “day (of body weight loss)” value came to 5 and the treatment-related deaths was determined as 0. Further, the “tumor volume compared with saline control” value in data set [3] was “significantly less tumor volume than saline control”.

On to “4-arm-PEG-20k-γ-isopropyl-ester-pemetrexed [Compound 28]”, for which the “Single dose MTD” value in data set [2] is listed as 10. For the same substance, the “BWL (body weight loss)” value is on record as −7.3% in data set [2] (tested dose (equiv) 10), −6.6% in data set [2] (tested dose (equiv) 18) and −9.1% in data set [2] (tested dose (equiv) 25). The “day (of body weight loss)” value is recorded as 9 in data set [2] (tested dose (equiv) 10), 5 in data set [2] (tested dose (equiv) 18) and 7 in data set [2] (tested dose (equiv) 25). Moreover, the treatment-related deaths in data set [2] (tested dose (equiv) 10), in data set [2] (tested dose (equiv) 18) and in data set [2] (tested dose (equiv) 25) was 0 throughout. Moreover, the “tumor volume compared with saline control” value in data set [3] was “significantly less tumor volume than saline control”.

Consider “4-arm-PEG-40k-γ-Ethyl-Ester-pemetrexed [Compound 24c]”, for which, in data set [2], the “Single dose MTD” value is recorded as 10. Also, in data set [2] (tested dose (equiv) 5), the “BWL (body weight loss)” value is listed as −0.5%, the “day (of body weight loss)” value is given as 5 and the treatment-related deaths worked out at 0. In addition, in data set [2] (tested dose (equiv) 10), the “BWL (body weight loss)” value is given as −7.6%, the “day (of body weight loss)” value amounted to 5 and the treatment-related deaths stood at 0. Besides, in data set [2] (tested dose (equiv) 15), the “BWL (body weight loss)” value is given as −15.7%, the “day (of body weight loss)” value worked out at 7 and the treatment-related deaths turned out to be 0. For the same substance, in data set [3], the “tumor volume compared with saline control” value was “significantly less tumor volume than saline control”.

These data come from patent US11612662B2, “Multi-arm polymeric prodrug conjugates of pemetrexed-based compounds” (priority 2010, dated 2023).
